Biological target: T1, human TF-Fc (Homo sapiens, UniProt P13726)
T1 construct: tissue factor (TF; CD142), human; Construct limits may be in Supplementary file1; also called human tissue factor Fc fusion protein; HuTF; source: Expi293F, transfected (pcDNA3.1(-), Genscript), purified from supernatant (Protein A; for SPR also SEC on Superdex 200 after 2 mM DTT)
Test: SPR; human TF-Fc amine-coupled to a CM5 chip (target 500 RU); scFvFc flowed over at 18.75-3.125 nM in PBS-EP (0.01% Tween20, 300 mM NaCl PBS, pH 7.4), 30 µL/min, contact 180 s, dissociation 600 s; 25 °C; Biacore X100; global fit, 1:1 binding model
Details: both partners purified

T1 sequence (P13726 33-251): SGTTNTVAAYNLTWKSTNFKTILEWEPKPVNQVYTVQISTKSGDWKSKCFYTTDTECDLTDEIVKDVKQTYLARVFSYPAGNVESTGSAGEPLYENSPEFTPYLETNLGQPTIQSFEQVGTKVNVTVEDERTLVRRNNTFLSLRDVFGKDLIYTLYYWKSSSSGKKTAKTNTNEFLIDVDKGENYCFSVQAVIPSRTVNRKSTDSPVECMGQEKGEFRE

Binder | Kd [nM]
hATR-5 scFvFc (scFv, V domains shown, source: Expi293F, transfected (pcDNA3.1(-)), purified from supernatant (Protein A, then SEC on Superdex 200 after 2 mM DTT)) VH: QVQLLESGAVLARPGTSVKISCKASGFNIKDYYMHWVKQRPGQGLEWIGGNDPANGHSMYDPKFQGRVTITADTSTSTVFMELSSLRSEDTAVYYCARDSGYAMDYWGQGTLVTVSS VL: DIQMTQSPSSLSASVGDRVTITCKASQDIKSFLSWYQQKPEKAPKSLIYYATSLADGVPSRFSGSGSGTDYTLTISSLQPEDFATYYCLQHGESPYTFGGGTKVEIK | 0.46
TF8-5G9 anti-TF scFvFc (scFv, V domains shown, also called TF8-5G9 scFvFc; TF85G9 scFvFc; source: Expi293F, transfected (pcDNA3.1(-)), purified from supernatant (Protein A, then SEC on Superdex 200 after 2 mM DTT)) VH: EIQLQQSGAELVRPGALVKLSCKASGFNIKDYYMHWVKQRPEQGLEWIGLIDPENGNTIYDPKFQGKASITADTSSNTAYLQLSSLTSEDTAVYYCARDNSYYFDYWGQGTTLTVSS VL: DIKMTQSPSSMYASLGERVTITCKASQDIRKYLNWYQQKPWKSPKTLIYYATSLADGVPSRFSGSGSGQDYSLTISSLESDDTATYYCLQHGESPYTFGGGTKLEIN | 0.37

— publication PMC11303627 (Cancer Immunology, Immunotherapy : CII, 2024)
